Measured values reported in publication PMC4623440.

Biological target: human VEGF-A165 (human)

With “FcD2, monospecific fusion of hinge, Fc, linker and VEGFR1 D2 (from UniProt P17948 129-229) (Fc fusion)” the inhibition of VEGF-stimulated HUVEC growth (CellTiter-Glo) was 2.1 nM.
